Positions count from the first letter of the chain named. Names may count otherwise.
B1: glucagon-like peptide 1 receptor (GLP-1R), wild-type, P43220 Y289A (protein)
chain: RPQGATVSLWETVQKWREYRRQCQRSLTEDPPPATDLFCNRTFDEYACWPDGEPGSFVNVSCPWYLPWASSVPQGHVYRFCTAEGLWLQKDNSSLPWRDLSECEESKRGERSSPEEQLLFLYIIYTVGYALSFSALVIASAILLGFRHLHCTRNYIHLNLFASFILRALSVFIKDAALKWMYSTAAQQHQWDGLLSYQDSLSCRLVFLLMQYCVAANYYWLLVEGVYLYTLLAFSVLSEQWIFRLYVSIGWGVPLLFVVPWGIVKALYEDEGCWTRNSNMNYWLIIRLPILFAIGVNFLIFVRVICIVVSKLKANLMCKTDIKCRLAKSTLTLIPLLGTHEVIFAFVMDEHARGTLRFIKLFTELSFTSFQGLMVAILYCFVNNEVQLEFRKSWERWRLEHLHIQRDSSMKPLKCPTSSLSSGATAGSSMYTATCQASCS
B2: glucagon-like peptide 1 receptor (GLP-1R), wild-type, P43220 Q210A (protein)
chain: B1 chain with Q187A, A266Y
B3: glucagon-like peptide 1 receptor (GLP-1R), wild-type, P43220 R299A (protein)
chain: B1 chain with A266Y, R276A
B4: glucagon-like peptide 1 receptor (GLP-1R), wild-type, P43220 L218A (protein)
chain: B1 chain with L195A, A266Y
B5: glucagon-like peptide 1 receptor (GLP-1R), wild-type, P43220 M204A (protein)
chain: B1 chain with M181A, A266Y
B6: glucagon-like peptide 1 receptor (GLP-1R), wild-type, P43220 Y291A (protein)
chain: B1 chain with A266Y, Y268A
B7: glucagon-like peptide 1 receptor (GLP-1R), wild-type, P43220 Y220A (protein)
chain: B1 chain with Y197A, A266Y
B8: glucagon-like peptide 1 receptor (GLP-1R), wild-type, P43220 T378A (protein)
chain: B1 chain with A266Y, T355A
B9: glucagon-like peptide 1 receptor (GLP-1R), wild-type, P43220 Y205A (protein)
chain: B1 chain with Y182A, A266Y
B10: glucagon-like peptide 1 receptor (GLP-1R), wild-type, P43220 L290A (protein)
chain: B1 chain with A266Y, L267A
B11: glucagon-like peptide 1 receptor (GLP-1R), wild-type, P43220 D372A (protein)
chain: B1 chain with A266Y, D349A
B12: glucagon-like peptide 1 receptor (GLP-1R), wild-type, P43220 G377A (protein)
chain: B1 chain with A266Y, G354A
B13: glucagon-like peptide 1 receptor (GLP-1R), wild-type, P43220 R380A (protein)
chain: B1 chain with A266Y, R357A
B14: glucagon-like peptide 1 receptor (GLP-1R), wild-type, P43220 N302A (protein)
chain: B1 chain with A266Y, N279A
B15: glucagon-like peptide 1 receptor (GLP-1R), wild-type, P43220 D222A (protein)
chain: B1 chain with D199A, A266Y
B16: glucagon-like peptide 1 receptor (GLP-1R), wild-type, P43220 K202A (protein)
chain: B1 chain with K179A, A266Y
B17: glucagon-like peptide 1 receptor (GLP-1R), wild-type, P43220 E292A (protein)
chain: B1 chain with A266Y, E269A
B18: glucagon-like peptide 1 receptor (GLP-1R), wild-type, P43220 I286A (protein)
chain: B1 chain with I263A, A266Y
B19: glucagon-like peptide 1 receptor (GLP-1R), wild-type, P43220 N304A (protein)
chain: B1 chain with A266Y, N281A
B20: glucagon-like peptide 1 receptor (GLP-1R), wild-type, P43220 S219A (protein)
chain: B1 chain with S196A, A266Y
B21: glucagon-like peptide 1 receptor (GLP-1R), wild-type, P43220 W203A (protein)
chain: B1 chain with W180A, A266Y
B22: glucagon-like peptide 1 receptor (GLP-1R), wild-type, P43220 S206A (protein)
chain: B1 chain with S183A, A266Y
B23: glucagon-like peptide 1 receptor (GLP-1R), wild-type, P43220 T386A (protein)
chain: B1 chain with A266Y, T363A
B24: glucagon-like peptide 1 receptor (GLP-1R), wild-type, P43220 L384A (protein)
chain: B1 chain with A266Y, L361A
B25: glucagon-like peptide 1 receptor (GLP-1R), wild-type, P43220 L217A (protein)
chain: B1 chain with L194A, A266Y
B26: glucagon-like peptide 1 receptor (GLP-1R), wild-type, P43220 V287A (protein)
chain: B1 chain with V264A, A266Y
B27: glucagon-like peptide 1 receptor (GLP-1R), wild-type, P43220 Q213A (protein)
chain: B1 chain with Q190A, A266Y
B28: glucagon-like peptide 1 receptor (GLP-1R), wild-type, P43220 D293A (protein)
chain: B1 chain with A266Y, D270A
B29: glucagon-like peptide 1 receptor (GLP-1R), wild-type, P43220 F381A (protein)
chain: B1 chain with A266Y, F358A
B30: glucagon-like peptide 1 receptor (GLP-1R), wild-type, P43220 M303A (protein)
chain: B1 chain with A266Y, M280A
B31: glucagon-like peptide 1 receptor (GLP-1R), wild-type, P43220 H212A (protein)
chain: B1 chain with H189A, A266Y
B32: glucagon-like peptide 1 receptor (GLP-1R), wild-type, P43220 C296A (protein)
chain: B1 chain with A266Y, C273A
B33: glucagon-like peptide 1 receptor (GLP-1R), wild-type, P43220 E387A (protein)
chain: B1 chain with A266Y, E364A
B34: glucagon-like peptide 1 receptor (GLP-1R), wild-type, P43220 F385A (protein)
chain: B1 chain with A266Y, F362A
B35: glucagon-like peptide 1 receptor (GLP-1R), wild-type, P43220 T207A (protein)
chain: B1 chain with T184A, A266Y
B36: glucagon-like peptide 1 receptor (GLP-1R), wild-type, P43220 W214A (protein)
chain: B1 chain with W191A, A266Y
B37: glucagon-like peptide 1 receptor (GLP-1R), wild-type, P43220 N300A (protein)
chain: B1 chain with A266Y, N277A
B38: glucagon-like peptide 1 receptor (GLP-1R), wild-type, P43220 L379A (protein)
chain: B1 chain with A266Y, L356A
B39: glucagon-like peptide 1 receptor (GLP-1R), wild-type, P43220 L307A (protein)
chain: B1 chain with A266Y, L284A
B40: glucagon-like peptide 1 receptor (GLP-1R), wild-type, P43220 K288A (protein)
chain: B1 chain with K265A, A266Y
B41: glucagon-like peptide 1 receptor (GLP-1R), wild-type, P43220 T298A (protein)
chain: B1 chain with A266Y, T275A
B42: glucagon-like peptide 1 receptor (GLP-1R), wild-type, P43220 L201A (protein)
chain: B1 chain with L178A, A266Y
B43: glucagon-like peptide 1 receptor (GLP-1R), wild-type, P43220 H374A (protein)
chain: B1 chain with A266Y, H351A
B44: glucagon-like peptide 1 receptor (GLP-1R), wild-type, P43220 S301A (protein)
chain: B1 chain with A266Y, S278A
B45: glucagon-like peptide 1 receptor (GLP-1R), wild-type, P43220 Y305A (protein)
chain: B1 chain with A266Y, Y282A
B46: glucagon-like peptide 1 receptor (GLP-1R), wild-type, P43220 R376A (protein)
chain: B1 chain with A266Y, R353A
B47: glucagon-like peptide 1 receptor (GLP-1R), wild-type, P43220 D215A (protein)
chain: B1 chain with D192A, A266Y
B48: glucagon-like peptide 1 receptor (GLP-1R), wild-type, P43220 S223A (protein)
chain: B1 chain with S200A, A266Y
B49: glucagon-like peptide 1 receptor (GLP-1R), wild-type, P43220 I382A (protein)
chain: B1 chain with A266Y, I359A
B50: glucagon-like peptide 1 receptor (GLP-1R), wild-type, P43220 E294A (protein)
chain: B1 chain with A266Y, E271A
B51: glucagon-like peptide 1 receptor (GLP-1R), wild-type, P43220 Q221A (protein)
chain: B1 chain with Q198A, A266Y
B52: glucagon-like peptide 1 receptor (GLP-1R), wild-type, P43220 E373A (protein)
chain: B1 chain with A266Y, E350A
B53: glucagon-like peptide 1 receptor (GLP-1R), wild-type, P43220 W297A (protein)
chain: B1 chain with A266Y, W274A
B54: glucagon-like peptide 1 receptor (GLP-1R), wild-type, P43220 G295A (protein)
chain: B1 chain with A266Y, G272A
B55: glucagon-like peptide 1 receptor (GLP-1R), wild-type, P43220 K383A (protein)
chain: B1 chain with A266Y, K360A
B56: glucagon-like peptide 1 receptor (GLP-1R), wild-type, P43220 Q211A (protein)
chain: B1 chain with Q188A, A266Y
B57: glucagon-like peptide 1 receptor (GLP-1R), wild-type, P43220 G285A (protein)
chain: B1 chain with G262A, A266Y

test system: human GLP-1R R190A; assay: cAMP production at R190A mutant; format: cell-based; conditions: Figure S3
Protocol: For cAMP assays, cells were stimulated for 30 min in the presence of the phosphodiesterase inhibitor IBMX and then lysed.
Dulbecco’s Modified Eagle’s Medium (DMEM) and Fluo-4 AM were purchased
from Invitrogen (Carlsbad, CA, USA). Foetal bovine serum (FBS) was purchased from Thermo
Electron Corporation (Melbourne, VIC, Australia). AlphaScreen reagents, 384-well opti and
proxiplates were purchased from PerkinElmer Life and Analytical Sciences (Waltham, MA, USA).
All other reagents were purchased from
Sigma-Aldrich (St. Louis, MO, USA) or BDH Merck (Melbourne, Vic, Australia) and were of an
Receptor mutagenesis. To study the influence of ECL amino acids, and R190 on receptor function,
the desired mutations were introduced to an N-terminally double c-myc labeled wild-type human GLP-
1R in the pEF5/FRT/V5-DEST destination vector (Invitrogen); this receptor had equivalent
Mutagenesis was carried out using oligonucleotides for
site-directed mutagenesis purchased from GeneWorks (HindMarsh, SA, Australia) and the
QuikChangeTM site-directed mutagenesis kit (Stratagene) and confirmed by automated sequencing
Cell culture: Stable transfections; Wild-type and mutant human GLP-1Rs were isogenically
integrated into FlpIn-Chinese hamster ovary (FlpInCHO) cells (Invitrogen) and selection of receptor-
expressing cells accomplished by treatment with 600 µg ml-1 hygromycin-B as previously described […]

**Q.** For “modified oxyntomodulin: oxyntomodulin with Q^3 substituted with E (HSEGTFTSDYSKYLDSRRAQDFVQWLMNTKRNRNNIA; Oxyntomodulin; UniProt P01275 53-89, looked up, variant Q3E)”, which “requirement of R190 for cAMP production” value is on record?
**A.** required for cAMP production

target: exendin-4, P26349; assay: radioligand inhibition binding (competition with 125I-exendin-4(9-39)); conditions: chain shown with the change;; read off a plot

**Q.** B1 was tested. Which log10 ratio did it give?
**A.** 0 ΔpKi

**Q.** How did the log10 ratio turn out when B2 was run?
**A.** -0.25 ΔpKi

**Q.** B3 was tested. Which log10 ratio did it give?
**A.** -1.5 ΔpKi

**Q.** How did the log10 ratio turn out when B4 was run?
**A.** -0.95 ΔpKi

**Q.** For B5, which log10 ratio is on record?
**A.** -0.75 ΔpKi

**Q.** Which log10 ratio does the source give for B6 here?
**A.** -0.45 ΔpKi

**Q.** B7 was tested. Which log10 ratio did it give?
**A.** 0.1 ΔpKi

**Q.** For B8, which log10 ratio is on record?
**A.** -0.5 ΔpKi

**Q.** With B9 as the molecule, how does the log10 ratio read?
**A.** -0.5 ΔpKi

**Q.** Which log10 ratio does the source give for B10 here?
**A.** -0.4 ΔpKi

**Q.** How did the log10 ratio turn out when B11 was run?
**A.** -1.1 ΔpKi

**Q.** Which log10 ratio does the source give for B12 here?
**A.** -0.4 ΔpKi

**Q.** For B13, which log10 ratio is on record?
**A.** -1.5 ΔpKi

**Q.** With B14 as the molecule, how does the log10 ratio read?
**A.** -1.2 ΔpKi

**Q.** For B15, which log10 ratio is on record?
**A.** -0.25 ΔpKi

**Q.** With B16 as the molecule, how does the log10 ratio read?
**A.** -0.25 ΔpKi

**Q.** For B17, which log10 ratio is on record?
**A.** -1.8 ΔpKi

**Q.** How did the log10 ratio turn out when B18 was run?
**A.** -0.3 ΔpKi

**Q.** B19 was tested. Which log10 ratio did it give?
**A.** -0.4 ΔpKi

**Q.** How did the log10 ratio turn out when B20 was run?
**A.** -0.15 ΔpKi

**Q.** Which log10 ratio does the source give for B21 here?
**A.** -0.15 ΔpKi

**Q.** How did the log10 ratio turn out when B22 was run?
**A.** -0.2 ΔpKi

**Q.** How did the log10 ratio turn out when B23 was run?
**A.** -0.55 ΔpKi

**Q.** Which log10 ratio does the source give for B24 here?
**A.** -1.2 ΔpKi

**Q.** B25 was tested. Which log10 ratio did it give?
**A.** -0.3 ΔpKi

**Q.** How did the log10 ratio turn out when B26 was run?
**A.** -0.25 ΔpKi

**Q.** Which log10 ratio does the source give for B27 here?
**A.** -0.15 ΔpKi

**Q.** With B28 as the molecule, how does the log10 ratio read?
**A.** -1.1 ΔpKi

**Q.** How did the log10 ratio turn out when B29 was run?
**A.** -0.35 ΔpKi

**Q.** B30 was tested. Which log10 ratio did it give?
**A.** -0.7 ΔpKi

**Q.** With B31 as the molecule, how does the log10 ratio read?
**A.** 0.3 ΔpKi

**Q.** How did the log10 ratio turn out when B32 was run?
**A.** -1.8 ΔpKi

**Q.** Which log10 ratio does the source give for B33 here?
**A.** -0.4 ΔpKi

**Q.** How did the log10 ratio turn out when B34 was run?
**A.** -0.2 ΔpKi

**Q.** How did the log10 ratio turn out when B35 was run?
**A.** -0.2 ΔpKi

**Q.** For B36, which log10 ratio is on record?
**A.** -0.25 ΔpKi

**Q.** With B37 as the molecule, how does the log10 ratio read?
**A.** -1.8 ΔpKi

**Q.** B38 was tested. Which log10 ratio did it give?
**A.** -0.95 ΔpKi

**Q.** For B39, which log10 ratio is on record?
**A.** -0.8 ΔpKi

**Q.** With B40 as the molecule, how does the log10 ratio read?
**A.** -1.9 ΔpKi

**Q.** How did the log10 ratio turn out when B41 was run?
**A.** -0.1 ΔpKi

**Q.** How did the log10 ratio turn out when B42 was run?
**A.** -0.3 ΔpKi

**Q.** For B43, which log10 ratio is on record?
**A.** -0.35 ΔpKi

**Q.** Which log10 ratio does the source give for B44 here?
**A.** -0.3 ΔpKi

**Q.** With B45 as the molecule, how does the log10 ratio read?
**A.** -1.7 ΔpKi

**Q.** Which log10 ratio does the source give for B46 here?
**A.** -0.35 ΔpKi

**Q.** For B47, which log10 ratio is on record?
**A.** -0.25 ΔpKi

**Q.** Which log10 ratio does the source give for B48 here?
**A.** -0.4 ΔpKi

**Q.** B49 was tested. Which log10 ratio did it give?
**A.** -0.15 ΔpKi

**Q.** For B50, which log10 ratio is on record?
**A.** 0.1 ΔpKi

**Q.** With B51 as the molecule, how does the log10 ratio read?
**A.** -0.2 ΔpKi

**Q.** B52 was tested. Which log10 ratio did it give?
**A.** -1.3 ΔpKi

**Q.** How did the log10 ratio turn out when B53 was run?
**A.** -1.8 ΔpKi

**Q.** With B54 as the molecule, how does the log10 ratio read?
**A.** -0.1 ΔpKi

**Q.** For B55, which log10 ratio is on record?
**A.** -1.1 ΔpKi

**Q.** Which log10 ratio does the source give for B56 here?
**A.** -0.2 ΔpKi

**Q.** For B57, which log10 ratio is on record?
**A.** -0.1 ΔpKi

From paper PMC4912689, “The Extracellular Surface of the GLP-1 Receptor Is a Molecular Trigger for Biased Agonism” (Cell, 2016)
